Assay: label from the status in PepcDB records

MTELEDPSRDRLKHHFAQRVIHQARQILETWQRLQKAQWSVADMAELKEATLRLMRFAERFEQAEHVALAHEINQSLDAVDANRGRLNSHVITELNRLMQRLSRTGLRHGDRLEQTSLPPLRKPVYVVLQDHERAERLAKQLEFFGLSALSLHSVADFQRAMAQRHPAAIVMDVDFSGPGMGLELASQAQEGLEQKLPLLFFSVHETDTPTRLAAVRAGGEEFLTGALEASSLLEKIEVLTCVAQYEPYKVLIIDDSRAQAMHTERVLNAAGIVTRVLIDPIQAMSELADFQPDLIILDMYMPGCTGTELAKVIRHNDRYVSVPIIYLSAEDDQDKQLDAMSEGGDDFLTKPIKPRHLITTVRNRAARARNLKSRMVRDSLTGLYNHTHILQLLEDCSFRSRREGKPLCFAMLDIDHFKRVNDSHGHPMGDRVIKSLALFLKQRLRKTDFIGRYGGEEFAIVMPDTDIHNAHKVLDEIRHRFAEIHYPAQPADLFCTFSAGVVCLGADDDSLSLASQADNALYRAKHAGRNQVHSALVQAPYHIVLAEIEA
protein production: failed

AARNLSKEEYAANHPAGRIGKSLIFKVKDVMKKQEELPVCKEGDLIMDQLVELTSKGCGCLLVVDEHSRLIGTFTDGDLRRTLKASGEAIFKLSVGEMCNRKPRTIGPETMAVEAMKKMESPPSPVQFLPVVNEDNTLIGIVTLHGLVSA
protein production: failed

EAGGIGIWEWELKPNIFSWDKRMFELYEIPPHIKPNWQVWYECVLPEDRQHAEKVIRDSLQSRSPFKLEFRIAVKDGIRHIRALANRVLNKEGEVERLLGINMDMT
protein production: failed

EKIGDRTYRVVSRLSLEDLKDHIEEELDLEIEFGDEIEDQVDTVGGLIAFELGRVPLPGATVETCGLKLTAEGAKNRRGRLRMHSAVVEVGE
protein production: not failed

MAHHHHHHMNPHPVEPRDQIAELLVESPLFSFNCAHFIAFKGFRETLHGHNYNVSLRLRGNIQGDGYVIDFSILKEKVRKVCKQLDHHFILPMYSDVLNIQEVNDNFKITCEDNSEYSFPKRDCVQIPIKHSSTEEIGLYILNQLIEEIDLPFLKTRSVNYMEVTVSESPSQKATVHRNI
protein production: not failed

MLSKVIAQANIDHAEKWFERADKIVIVTHVSPDGDAIGSSLGLWHFLESQEKTVNVIVPNAFPDFLRWMPGAKDIIRYDKYTEFANKLLNEADVICCLDFNALSRIDAMADAVAQSPARKMMIDHHLNPEAFCRIIISHPEISSTSELVFRLICRLGYFEDITKEGAECIYTGMMTDTGGFTYNSNDREIYFIISELLSKGIDKDEIYRKVYNTYSEGRLRLMGYVLYDKMQVFPQFNSALVWLTKEEQSKFQYVKGDTEGFVNIPLSIKNIIFSVFLREDTEKNMIKVSLRSVGAFPCNKVAAEFFNGGGHLNASGGEFYGTMDEAIDLFKQALVKYEELLLAKK
protein production: failed

MAPMIPHPPAVLAHRLSEGQRLATPLMRALMRATGTQVDAAIARTIAELGAHCGADRTRVYRIEAGQVLDCTHEWCRSGISEIRPEMQRIPLGTLDRWMPILRRGEPVDVPDLHGLPEDDPAKQQMARHGIRALVLMPLTAGTALTGVVGLSLFRARRPVDPAEMALLHSIAEAMGAALARRDAERRAVAARSAARDVARNLERLARVTELMTNLVIVTDVEQQIVWVNRAFERQTGHSLEAIRGRNFAEVVRGPGTDPGVCAAVAEAIRTCSSCEGETINYTAAGQPYWIRFNAHPLSDADGRYAGHASVETVITDRKVLERELATRNAFLTAVLQTSVSAIVALNAEGGIVYANDEARRLLVLQPHRGGLRMEAVLETLDGRPLPEADMPSALVRATGAPLHDLRYAIRRPDGQFGILSINAAPLPQAADDARIVISVTDITHAEASAERLRRQAAEDPLTGLANRRALADAVETRLTEAAPFALVMLDLDNFKAVNDLQRHDTGDAVLRIAADRLRAVAGADCLVARMGGDEFMVLAPGTDAASAPRLAEALRAAISAPIEVGRQPVHLAASAGIALHPEHGTSMALLMTGADIALHAAKRAGRNRSVLLSQAQFAAEARRSAITQALAADVEADLRLVFQPQFRACGAFDGAEALLRWTDPRLGEIGPAEFIPIAEEAGLIQRIDAHVAVLAARQLGLWARRGWRHRLAVNASAQTFARAGFAEELLQHLAEEDVCPQQLVVELTDTSLATLSSVADHNIATLRRAGVGIAIDDFGTGYASLSYLHRIEATEIKIDRGFVAGLETAERRDSKPLIQAILSLAHALGLAVTAEGVETERQRSWLSAEGCDRLQGYLLGRPLPVEAFEAAFVTPAAVPG
protein production: failed

MSLTTFLFRNGALLDPDHPDLLQGFEILIEDGFIREVSDKPIKSSNAHVIDVKGKTIMPGLIDLHVHVVAIEFNLPRVATLPNVLVTLRAVPIMRAMLRRGFTTVRDAGGAGYPFKQAVESGLVEGPRLFVSGRALSQTGGHADPRARSDYMPPDSPCGCCVRVGALGRVADGVDEVRRAVREELQMGADQIKIMASGGVASPTDPVGVFGYSEDEIRAIVAEAQGRGTYVLAHAYTPAAIARAVRCGVRTIEHGNLIDDETARLVAEHGAYVVPTLVTYDALASEGEKYGLPPESIAKIADVHGAGLHSIEIMKRAGVKMGFGTDLLGEAQRLQSDEFRILAEVLSPAEVIASATIVSAEVLGMQDKLGRIVPGAHADVLVVDGNPLKSVDCLLGQGEHIPLVMKDGRLFVNELEGHEGHHHHHH
protein production: not failed

MASGQFVNKLQEEVICPICLDILQKPVTIDCGHNFCLKCITQIGETSCGFFKCPLCKTSVRKNAIR
protein production: not failed

MEYTTLAVLAGLPEDPHGAVGLPIYAVAAYGFKTLEEGQERFATGEGYVYARQKDPTAKALEERLKALEGALEAVVLASGQAATFAALLALLRPGDEVVAAKGLFGQTIGLFGQVLSLMGVTVRYVDPEPEAVREALSAKTRAVFVETVANPALLVPDLEALATLAEEAGVALVVDNTFGAAGALCRPLAWGAHVVVESLTKWASGHGSVLGGAVLSRETELWRNYPQFLQPDLKGQIPWEALRARCFPERVRTLGLSLCGMALSPFNAYLLFQGLETVALRVARMSETARFLAERLQGHPKVKALRYPGLPEDPAHRNARKYLASGGPILTLDLGDLERASRFLGAIRLLKAANLGDARTLLVHPWTTTHSRLKEEARLQAGVTPGLVRVSVGLEDPLDLLALFEEALEAV
protein production: not failed

MGSSSSFSSSSSKLLFRQLFENESSTFTYLLADVSHPDKPALLIDPVDKTVDRDLKLIDELGLKLIYAMNTHVHADHVTGTGLLKTKLPGVKSVISKASGSKADLFLEPGDKVSIGDIYLEVRATPGHTAGCVTYVTGEGADQPQPRMAFTGDAVLIRGCGRTDFQEGSSDQLYESVHSQIFTLPKDTLIYPAHDYKGFEVSTVGEEMQHNPRLTKDKETFKTIMSNLNLSYPKMIDVAVPANMVCGLQDVPSQAN
protein production: not failed

MRHYETMFILKPTLVEEEIKSKIEFYKEVITKHHGVIETSLDMGMRNLAYEIKKHKRGYYYVAYFKAEPSMIVELERLYRINEDVLRFIVIKYESKKEVEAWHALVDRANKKPSHAKEKHEKTEHTHSHHTEEAESVGSHSE
protein production: failed

ISCSDPNPLDSYTRVPFEKTETDDGNGDGDGDGAGGLFEKGNGTDSKPYMIMNATQIRNMRSVLKSGMKVYFQLGADIDMAGIDDWQSLNGSGDFPYEIDFDGDSHVIKNFKCSAGDYPSFFGVLCGDCRNVGFVNASVSSARQGIGIITGYLGLKDKGNGNKTGRIVNCYTTGEVIGSGAAGGIAGVLANSYDGQESYIKNCYSNATVSDRAASGGKAGGIAGRKVGVGGFIENCYAYGAVSATKGGVGGILGQIDKSCDIAIKNSAAWSNLTGVDASSTVGRIVGVSASLGSYENCYACESIVLKVNEKTITASDESSATGTTFHGVAKSAEELGNIIVAWNPNLWKKGTNGYPIFQWSE
protein production: not failed

MATKSSDSSHKQSPPSFRKSVEIKATHDQFFVWREFLWGGIAGAFGEGMMHPVDTLKTRLQSQIIMNATQRQKSILQMLRTVWVGDGLKGFYRGIAPGVTGSLATGATYFGFIESTKKWIEESHPSLAGHWAHFIAGAVGDTLGSFIYVPCEVIKQRMQIQGTSSSWSSYISRNSVPVQPRGDMYGYYTGMFQAGCSIWKEQGPKGLYAGYWSTLARDVPFAGLMVVFYEGLKDLTDQGKKKFPQYGVNSSIEGLVLGGLAGGLSAYLTTPLDVVKTRLQVQGSTIKYASYKGWLDAVGQIWRKEGPQGFFRGSVPRVMWYLPASALTFMAVEFLRDNFREKSNNNNNVVSNLSIERKTSSTSVHEG
protein production: failed

DASRQAELVREGITSSSDLVEQSLNKIEKGNSQLNAVTYLRADRALEEAKQINDHGQPFFGVPILLKGLGQKLAGEPATASSRLLKKLVADQTDFYVQALQKAGFIVIGQTNAPEFGFKNITDPTLYGPTRNPWNLDYYSGGSSGGAASSMAADFVSIASGSDGGGSIRIPASFSSLIGLKPTRGRIPVGPTDWRTWQGASISFALTRSVRDNARLLDAIQTVQPAAAFTTPLYEAGFFAGIDQLDRNLTIAYTTKSPVGTEVRDEAKTAVENAVDFLRSEGFQVEEQENPLDGKEIMQLYYLMNAGETAAMFADIEEGIGRPTNIQDMELMSWVIYQAGKLVTAGEYSQALSKWDISSYQMNQFHENYDLYLTPTTAYPAPKLTDELISPELLGRMKEVTSLTSSFERQQLIYDAFLPSLALTPFTQQANLTGEPAISLPTHLTAAGLPLGIQFQAAKGREIDLLRIARLFEKHNLFHFLHKTIF
protein production: failed

MTALKPALPDYLGNIRIILTRTSHPANIGSAARAMKTMGLHRLTIVTPNLMATPMTENPPVFNPDDVQSFALPEESFILASGAADVLHNAEIVATLDEALADTTIACALTSRRREITAPLQTPRDLVPELLQAANRGEKVALVFGNETFGLSIEEVRACNRLMTINGNPDYFSLNLAQAVQVVCYEIFSQTDSPMTHLQQEDHAATHEQIKGMLAHMESVMDDIGFFNRRNGERLMRRMQSLFGRANTQTEDIDILRGFFNTVSHRIHKKD
protein production: failed

MLTFEKVLEIFADYLTADETIEVYISRHGCVRVEFDQDFHYCSGEVCHTPKELFNLLADDYRTYVEIELTKGRRELTEDDEREADALCKRHLERWREKLE
protein production: failed

MTTRRLALFDLDHTLLPLDSDYQWADFLARTGRAGDPAEARRRNDDLMERYNRGELTAEQAAEFMLGLLAAHSPVELAAWHEEFMRDVIRPSLTVQAVDVVRGHLAAGDLCALVTATNSFVTAPIARAFGVQHLIATDPEYRDGRYTGRIEGTPSFREGKVVRVNQWLAGMGLALGDFAESYFYSDSVNDVPLLEAVTRPIAANPSPGLREIAQARGWQVIDLFDHLEDAKS
protein production: not failed

MSGGGVIRGPAGNNDCRIYVGNLPPDIRTKDIEDVFYKYGAIRDIDLKNRRGGPPFAFVEFEDPRDAEDAVYGRDGYDYDGYRLRVEFPRSGRGTG
protein production: not failed

MPKEKYEPPDPRRMYTIMSSEEAANGKKSHWAELEISGKVRSLSSSLWSLTHLTALHLSDNSLSCIPSDIAKLHNLVYLDLSHNQIQSLPAELGNMVSLRELHLNYNQLRVLPFELGKLFQLQTLSLKGNPLTQDILNLCLEPDGTRRLLNYLLDNLSVSTEQPPPRSWIMLQEPDRTRPTALFSVMCYNVLCDKYATRQLYGYCPSWALNWDYRKKAIIQEILSCNADIISLQEVETEQYYSFFLVELKERGYNGFFSPKSRARTMSEQERKHVDGCAIFFKTEKFTLVQKHTVEFNQLAMANSEGSEAMLNRVMTKDNIGVAVLLELRKELIEMSSGKPHLGTEKQLILVANAHMHWDPEYSDVKLVQTMMFLSEVKNIIDKASRSLKSSVLGECGTIPLVLCADLNSLPDSGVVEYLSTGGVETNHKDFKELRYNESLTNFSCNGKNGMTNGRITHGFKLKSAYENGLMPYTNYTFDFKVSFHSLIFISMFCNFLSLKHQCML
protein production: failed

MAAWVCILGQMKPDPETKPDPMRQTAQPAPQRLLRHLPLIVIVLIAVIGAITLRDYLSFDTLAANRQALLAYREAHYAALAAIFVATYVLIVAFSLPGAAVASMTGGFLFGLAVGTVLNVVAATIGAVAIFLAARAGLGAMLTARLEASEGTVKRLKEGLRRNEIEVLFLLRLVPAVPFFAANLIPALVGVKLRNYVLTTALGIVPGAIVFTWIGVGLGGVFDRGESPDLSLFREPFVIGPILGLCLLAALPIAIKALRGKPEGE
protein production: failed
